# Experimental data reported in the supplement of paper PMC11780869.
# Tested on: Bacillus subtilis
# Assay: cleaved RNA product abundance (RNA/gDNA barcode ratio) relative to median wild-type variant (ratio to wild type); higher = more accumulation of the downstream cleavage product
# Settings: experiment (reporter, strain, medium): exp 8a: truncated aprE reporter, strain BJT201 with 2% xylose (RNase J1 expressed); cleavage site: glnRA (positions -5 to +31 mutated)
# In short: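 In LB at 37°C, B. subtilis cultures went from OD600 0.0003 to 0.3. Their chromosomes held barcoded reporter mRNAs, truncated aprE or tetM, with RNase Y cleavage-site windows mutagenized via oligos at a 9% error rate. Cleaved RNA, chosen by gel, was reverse transcribed and barcode-sequenced alongside genomic DNA barcodes with UMI collapsing, giving a per-construct RNA:gDNA ratio scaled to the median construct with the unmutated site. This scaled ratio is termed cleaved product abundance.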
row,Sequence,cleaved RNA product abundance
1,CGACATGTCCCGCTTCTTTCATTAATCCGTTACCAACTGTTTTGTTATATACATTTACCTTTTAAGAGGAGGAAT,0.231
2,CGACATGTCCCGCTTCTTTCATTAATCCGTTACCAACTGTTTTTCTATATACATTTACCTTTTAAGAGGAGGAAT,0.234
3,CGACATGTCCCGCTTCTTTCATTAATCCGTTACCAACTTTTTTGCTATATACATTTACCTTTTAAGAGGAGGAAT,0.225
4,CGACATGTCCCGCTTCTTTCATTAATCCGTTACCAAGTGTTTTGCTATATACATTTACCTTTTAAGAGGAGGAAT,0.272
5,CGACATGTCCCGCTTCTTTCATTAATCCGTTACCAATTGTTTTGCTATATACATTTACCTTTTAAGAGGAGGAAT,0.16
6,CGACATGTCCCGCTTCTTTCATTAATCCGTTACCATCTGTTTTGCTATATACATTTACCTTTTAAGAGGAGGAAT,0.163
7,CGACATGTCCCGCTTCTTTCATTAATCCGTTACCGACTGTTTTGCTATATACATTTACCTTTTAAGAGGAGGAAT,0.269
8,CGACATGTCCCGCTTCTTTCATTAATCCGTTACCTACTGTTTTGCTATATACATTTACCTTTTAAGAGGAGGAAT,0.443
9,CGACATGTCCCGCTTCTTTCATTAATCCGTTACGAACTGTTTTGCTATATACATTTACCTTTTAAGAGGAGGAAT,0.291
10,CGACATGTCCCGCTTCTTTCATTAATCCGTTACTAACTGTTTTGCTATATACATTTACCTTTTAAGAGGAGGAAT,0.155
11,CGACATGTCCCGCTTCTTTCATTAATCCGTTAGAAAATGTTTTGCTATAAACATTTACCTTTTAAGAGGAGGAAT,0.166
12,CGACATGTCCCGCTTCTTTCATTAATCCGTTAGAAAATGTTTTGCTATATACATTTACCTTTTAAGAGGAGGAAT,0.396
13,CGACATGTCCCGCTTCTTTCATTAATCCGTTAGAAACAGTTTTGCTATATATATTTACATTTTAAGAGGAGGAAT,0.362
14,CGACATGTCCCGCTTCTTTCATTAATCCGTTAGAAACTATTTTGCTATATACATTTACCTTTTAAGAGGAGGAAT,0.339
15,CGACATGTCCCGCTTCTTTCATTAATCCGTTAGAAACTCTTTTGCTATATACATTTACCTTTTAAGAGGAGGAAT,0.377
16,CGACATGTCCCGCTTCTTTCATTAATCCGTTAGAAACTGATTTGCTATATACATTTACCTTTTAAGAGGAGGAAT,0.194
17,CGACATGTCCCGCTTCTTTCATTAATCCGTTAGAAACTGCTTTGCTATATACATTTACCTTTTAAGAGGAGGAAT,0.146
18,CGACATGTCCCGCTTCTTTCATTAATCCGTTAGAAACTGTATTGCTATATACATTTACCTTTTAAGAGGAGGAAT,0.321
19,CGACATGTCCCGCTTCTTTCATTAATCCGTTAGAAACTGTTGTGCTATATACATTTACCTTTTAAGAGGAGGAAT,0.361
20,CGACATGTCCCGCTTCTTTCATTAATCCGTTAGAAACTGTTTAGCTATATACATTTACCTTTTAAGAGGAGGAAT,0.295
21,CGACATGTCCCGCTTCTTTCATTAATCCGTTAGAAACTGTTTCGCTATATACATTTACCTTTTAAGAGGAGGAAT,0.12
22,CGACATGTCCCGCTTCTTTCATTAATCCGTTAGAAACTGTTTTACTATATACATTTACCTTTTAAGAGGAGGAAT,0.422

row,Sequence,cleaved RNA product abundance
1,CGACATGTCCCGCTTCTTTCATTAATCCGTTAGAAACTGTTTTCCTATATACATTTACCTTTTAAGAGGAGGAAT,0.317
2,CGACATGTCCCGCTTCTTTCATTAATCCGTTAGAAACTGTTTTGATATATACATTTACCTTTTAAGAGGAGGAAT,0.221
3,CGACATGTCCCGCTTCTTTCATTAATCCGTTAGAAACTGTTTTGCTAAATACATTTACCTTTTAAGAGGAGGAAT,0.241
4,CGACATGTCCCGCTTCTTTCATTAATCCGTTAGAAACTGTTTTGCTAGATACATTTACCTTTTAAGAGGAGGAAT,0.255
5,CGACATGTCCCGCTTCTTTCATTAATCCGTTAGAAACTGTTTTGCTATAAACATTTACCTTTTAAGAGGAGGAAT,0.203
6,CGACATGTCCCGCTTCTTTCATTAATCCGTTAGAAACTGTTTTGCTATACACATTTACCTTTTAAGAGGAGGAAT,0.253
7,CGACATGTCCCGCTTCTTTCATTAATCCGTTAGAAACTGTTTTGCTATATAAATTTACCTTTTAAGAGGAGGAAT,0.256
8,CGACATGTCCCGCTTCTTTCATTAATCCGTTAGAAACTGTTTTGCTATATACACTTACCTTTTAAGAGGAGGAAT,0.157
9,CGACATGTCCCGCTTCTTTCATTAATCCGTTAGAAACTGTTTTGCTATATACAGTTACCTTTTAAGAGGAGGAAT,0.361
10,CGACATGTCCCGCTTCTTTCATTAATCCGTTAGAAACTGTTTTGCTATATACATATACCTTTTAAGAGGAGGAAT,0.244
11,CGACATGTCCCGCTTCTTTCATTAATCCGTTAGAAACTGTTTTGCTATATACATCTACCTTTTAAGAGGAGGAAT,0.228
12,CGACATGTCCCGCTTCTTTCATTAATCCGTTAGAAACTGTTTTGCTATATACATTAACCTTTTAAGAGGAGGAAT,0.374
13,CGACATGTCCCGCTTCTTTCATTAATCCGTTAGAAACTGTTTTGCTATATACATTTACATTTTAAGAGGAGGAAT,0.34
14,CGACATGTCCCGCTTCTTTCATTAATCCGTTAGAAACTGTTTTGCTATATACATTTACCTTTTAAGAGGAGGAAT,0.292
15,CGACATGTCCCGCTTCTTTCATTAATCCGTTAGAAACTGTTTTGCTATATACATTTACTTTTTAAGAGGAGGAAT,0.331
16,CGACATGTCCCGCTTCTTTCATTAATCCGTTAGAAACTGTTTTGCTATATACATTTATCTTTTAAGAGGAGGAAT,0.384
17,CGACATGTCCCGCTTCTTTCATTAATCCGTTAGAAACTGTTTTGCTATATACTTTTACCTTTTAAGAGGAGGAAT,0.217
18,CGACATGTCCCGCTTCTTTCATTAATCCGTTAGAAACTGTTTTGCTATATATATTTACCTTTTAAGAGGAGGAAT,0.272
19,CGACATGTCCCGCTTCTTTCATTAATCCGTTAGAAACTGTTTTGCTATATTCATTTACCTTTTAAGAGGAGGAAT,0.268
20,CGACATGTCCCGCTTCTTTCATTAATCCGTTAGAAACTGTTTTGCTATTTACATTTACCTTTTAAGAGGAGGAAT,0.127
21,CGACATGTCCCGCTTCTTTCATTAATCCGTTAGAAACTGTTTTGCTGTATACATTCATCTTTTAAGAGGAGGAAT,0.0887
22,CGACATGTCCCGCTTCTTTCATTAATCCGTTAGAAACTGTTTTGCTGTATACATTTACCTTTTAAGAGGAGGAAT,0.085

row,Sequence,cleaved RNA product abundance
1,CGACATGTCCCGCTTCTTTCATTAATCCGTTAGAAACTGTTTTGGTATATACATTTACCTTTTAAGAGGAGGAAT,0.104
2,CGACATGTCCCGCTTCTTTCATTAATCCGTTAGAAACTGTTTTTCTATATACATTTACCTTTTAAGAGGAGGAAT,0.511
3,CGACATGTCCCGCTTCTTTCATTAATCCGTTAGAAACTTTTTTGCTATATACATTTACCTTTTAAGAGGAGGAAT,0.287
4,CGACATGTCCCGCTTCTTTCATTAATCCGTTAGAAAGTGTTTTGCTATATACATTTACCTTTTAAGAGGAGGAAT,0.368
5,CGACATGTCCCGCTTCTTTCATTAATCCGTTAGAAATTGTTTTGCTATATACATTTACCTTTTAAGAGGAGGAAT,0.342
6,CGACATGTCCCGCTTCTTTCATTAATCCGTTAGAACCTGTTTTGCTATATACATTTACCTTTTAAGAGGAGGAAT,0.229
7,CGACATGTCCCGCTTCTTTCATTAATCCGTTAGAAGCTGTTTTGCTATATACATTTACCTTTTAAGAGGAGGAAT,0.23
8,CGACATGTCCCGCTTCTTTCATTAATCCGTTAGAATCTGTTTTGCTATATACATTTACCTTTTAAGAGGAGGAAT,0.239
9,CGACATGTCCCGCTTCTTTCATTAATCCGTTAGATACTGTTTTGCTATATACATTTACCTTTTAAGAGGAGGAAT,0.273
10,CGACATGTCCCGCTTCTTTCATTAATCCGTTAGCAAATATTTTGCTATATACATTTACCTTTTAAGAGGAGGAAT,0.843
11,CGACATGTCCCGCTTCTTTCATTAATCCGTTAGCAAATGATTTGCTATATACATTTACCTTTTAAGAGGAGGAAT,1.28
12,CGACATGTCCCGCTTCTTTCATTAATCCGTTAGCAAATGGTTTGCTATATACATTTACCTTTTAAGAGGAGGAAT,0.732
13,CGACATGTCCCGCTTCTTTCATTAATCCGTTAGCAAATGTTATGCTATATACATTTACCTTTTAAGAGGAGGAAT,0.766
14,CGACATGTCCCGCTTCTTTCATTAATCCGTTAGCAAATGTTTAGCTATATACATTTACCTTTTAAGAGGAGGAAT,0.503
15,CGACATGTCCCGCTTCTTTCATTAATCCGTTAGCAAATGTTTGGCTATATACATTTACCTTTTAAGAGGAGGAAT,0.43
16,CGACATGTCCCGCTTCTTTCATTAATCCGTTAGCAAATGTTTTACTATATACATTTACCTTTTAAGAGGAGGAAT,0.73
17,CGACATGTCCCGCTTCTTTCATTAATCCGTTAGCAAATGTTTTCCTATATACACTTACCTTTTAAGAGGAGGAAT,0.377
18,CGACATGTCCCGCTTCTTTCATTAATCCGTTAGCAAATGTTTTGATATATACATTTACCTTTTAAGAGGAGGAAT,0.418
19,CGACATGTCCCGCTTCTTTCATTAATCCGTTAGCAAATGTTTTGCAATATACATTTACCTTTTAAGAGGAGGAAT,0.304
20,CGACATGTCCCGCTTCTTTCATTAATCCGTTAGCAAATGTTTTGCTACATACATTTACCTTTTAAGAGGAGGAAT,0.354
21,CGACATGTCCCGCTTCTTTCATTAATCCGTTAGCAAATGTTTTGCTATAAACATTTACCTTTTAAGAGGAGGAAT,0.584
22,CGACATGTCCCGCTTCTTTCATTAATCCGTTAGCAAATGTTTTGCTATACACATTTACCTTTTAAGAGGAGGAAT,0.444
